From patent publication US20150087812A1 (Janssen / Centocor, published 2015)
Substitutions are numbered along the chain they refer to. Each block holds one binder with its values, some of them ahead of it.

Columns and labels:
[1] = molecular target: T1, recombinant human ATX beta isoform with N-terminal purification tag (human, UniProt Q13822 49-863); assay: SPR Biacore 3000, His-ATX beta captured on anti-Penta-His, mAb as analyte, bivalent analyte model
Procedure: Affinity measurements using surface plasmon resonance (SPR) were performed using a Biacore 3000 optical biosensor (Biacore) for ATXB3, ATXB6, ATXB8, ATXB9, ATXB13, and ATXB14. A biosensor surface was prepared by coupling anti-Penta-His antibody (Qiagen, Cat No. 34660) to the carboxymethylated dextran surface of a CM-5 chip (Biacore, Cat No. BR-1000-14) using the manufacturer instructions for amine-coupling chemistry. Approximately 15,000 RU (response units) of anti-Penta-His antibody were immobilized in each of four flow cells. The kinetic experiments were performed at 25° C. in running buffer (PBS+0.01% P20+100 ug/ml BSA). Serial dilutions of anti-ATX mAbs (ATXB3, B6, B8, B9, B13, B14) from 900 nM to 0.412 nM were prepared in running buffer. About 80 RU of human ATX beta-His tagged proteins were captured on flow cell 2 of the sensor chip. Flow cell 1 was used as reference surface. Capture of ATX was followed by five minutes injection (association phase) of anti-ATX mAbs at 50 uL/min, followed by 15 minutes of buffer flow (dissociation phase). The chip surface was regenerated by 15 seconds injection of 100 mM H₃PO₄ (Sigma, Cat No. 7961) at 50 uL/min. The collected data were processed using BIAevaluation software, version 3.2 (Biacore). First, double reference subtraction of the data was performed by subtracting the curves generated by buffer injection from the reference-subtracted curves for analyte injections. Then kinetic analysis of the data was performed using the Bivalent Analyte binding model with global fitting. Kd1 (Kₒₙ) was calculated as intrinsic KD with minimum avidity. The result for each mAb was reported in the format of Ka1 (On-rate, Kₒₙ), Kd1 (Off-rate, Koff) and KD1 (Equilibrium dissociation constant). Affinity measurements for ATXB18 were performed on a Proteon XPR36 system (Bio-Rad), using a protocol similar to the one used on the Biacore platform.
The five mAbs with the lowest IC50 values in the inhibition assays as well as ATXB3, a non-neutralizing antibody, were tested for their affinity to the human ATX-beta isoform, as measured by surface plasmon resonance. Due to nonspecific binding of the ATX antigen to the chip surface, these experiments had to be conducted in the reverse format, with ATX immobilized on the chip surface (ligand) and our antibodies in solution (analyte).

[2] = molecular target: T1, recombinant human ATX beta isoform with …; assay: ELISA, Fab-His captured by anti-Fd, 5 nM biotinylated human ATX beta
Procedure: (§1) Fabs were captured on black MaxiSorp plates (Nunc, Cat. No. 437111) coated with 1 μg/ml sheep anti-human Fd (CH1) antibody (The Binding Site, Cat. No. PC075). Plates were washed and biotinylated human ATX was added to the captured Fabs at 5 nM. Incubation was carried out for 1 hour at room temperature with gentle shaking. Plates were washed, SA-HRP (Invitrogen, Cat. No. 43-4323) was added and chemiluminescent detection carried out.
(§2) Clones with binding above background were sequenced and unique clones identified. […] These clones were identified with binding signal to human ATX at least 6-fold above the background. Table 3 lists the identifier for VH and VL (Peptide ID) and the combination of both (Fab ID) sorted by the Fab ELISA binding data.

[3] = molecular target: T1, recombinant human ATX beta isoform with …; assay: Fab-His ELISA
Procedure: as §1, §2

[4] = molecular target: T1, recombinant human ATX beta isoform with …; assay: cell-based or functional assay
[5] = molecular target: recombinant mouse ATX beta isoform (R&D Systems, Cat No. 6187-EN-010) (mouse, UniProt Q9R1E6 36-862); assay: cell-based or functional assay

B2: Fab F40 (VH H32, VL L42) (Fab, V domains shown)
VH: EVQLVQSGGGLVQPGGSLRLSCAASGFTFSSYAMSWVRQAPGKGLEWVSVINSDGSSIYYADSVKGRFTISRDNSKNTLYLQMNSLRAEDTAVYYCAKLEAIDYAWGFDYWGQGTLVTVSS
VL: EIVLTQSPATLSLSPGERATLSCRASQSVADSLAWYQQKPGQAPRLLIYNASNRATGIPARFSGSGSGTDFTLTISSLEPEDFAVYYCQQSFHWPLTFGQGTKVEIK
notes: Soluble Fab-His; converted to mAb B16; the Fab's H32 may differ in FR1
- Fab Binding [2]: 8.1e+06 relative chemiluminescence units
- fold above background [3]: ≥ 6 fold

B3: Fab F69 (VH H63, VL L63) (Fab, V domains shown)
VH: QVQLVQSGAEVKKPGSSVKVSCKASGGTFSSYAISWVRQAPGQGLEWMGGIIPIFGTANYAQKFQGRVTITADESTSTAYMELSSLRSEDTAVYYCARDDDVNSLASYPLDYWGQGTLVTVSS
VL: B2 VL with A30S, D31K, S32A, N50Y, S91Y, F92K, H93N, W94A, L96R
notes: Soluble Fab-His
- Fab Binding [2]: 2e+06 relative chemiluminescence units
- fold above background [3]: ≥ 6 fold

B4: Fab F74 (VH H68, VL L68) (Fab, V domains shown)
VH: B3 VH with D100G, L105V, A106Y, Y108S, P109G
VL: B2 VL with A30N, D31K, S32F, N50F, S91Y, F92N, W94A, L96F
notes: Soluble Fab-His
- Fab Binding [2]: 1.7e+06 relative chemiluminescence units
- fold above background [3]: ≥ 6 fold

B7: Fab F100 (VH H93, VL PH9L1) (Fab, V domains shown)
VH: QVQLVQSGAEVKKPGSSVKVSCKASGGTFSSYAISWVRQAPGQGLEWMGGIIPIFGNTNYAQKFQGRVTITADESTSTAYMELSSLRSEDTAVYYCARHYLPDATLDYWGQGTLVTVSS
VL: not shown
notes: Soluble Fab-His
- Fab Binding [2]: 1.9e+06 relative chemiluminescence units
- fold above background [3]: ≥ 6 fold

B10: Fab F67 (VH H60, VL L61) (Fab, V domains shown)
VH: QVQLVQSGAEVKKPGSSVKVSCKASGGTFSSYAISWVRQAPGQGLEWMGGIIPIFGTANYAQKFQGRVTITADESTSTAYMELSSLRSEDTAVYYCARIARYARGYMHTFDYWGQGTLVTVSS
VL: DIQMTQSPSSLSASVGDRVTITCRASQSISSYLNWYQQKPGKAPKLLIYAASSLQSGVPSRFSGSGSGTDFTLTISSLQPEDFATYYCQQHLSIPITFGQGTKVEIK
notes: Soluble Fab-His; converted to mAb B10
- Fab Binding [2]: 8.8e+06 relative chemiluminescence units
- fold above background [3]: ≥ 6 fold

B13: Fab F89 (VH H70, VL L82) (Fab, V domains shown)
VH: QVQLVQSGAEVKKPGSSVKVSCKASGGTFSSYAISWVRQAPGQGLEWMGGISPYFGNANYAQKFQGRVTITADESTSTAYMELSSLRSEDTAVYYCARYGDFGGNVFTEFDYWGQGTLVTVSS
VL: EIVLTQSPGTLSLSPGERATLSCRASQSVNNSDLAWYQQKPGQAPRLLIYTASSRATGIPDRFSGSGSGTDFTLTISRLEPEDFAVYYCQQATTVPLTFGQGTKVEIK
notes: Soluble Fab-His; converted to mAb B9
- Fab Binding [2]: 5.7e+06 relative chemiluminescence units
- fold above background [3]: ≥ 6 fold

B14: Fab F135 (VH H138, VL L118) (Fab, V domains shown)
VH: QVQLVQSGAEVKKPGSSVKVSCKASGGTFSSYAISWVRQAPGQGLEWMGGIIPIFGTANYAQKFQGRVTITADESTSTAYMELSSLRSEDTAVYYCARDFLSQFSWLDYWGQGTLVTVSS
VL: B13 VL with N30S, N31S, D33Y, T51G, A92S, T93S, T94G, V95F
notes: Soluble Fab-His
- Fab Binding [2]: 2e+06 relative chemiluminescence units
- fold above background [3]: ≥ 6 fold

B15: Fab F85 (VH H58, VL L79) (Fab, V domains shown)
VH: QVQLVQSGAEVKKPGSSVKVSCKASGGTFSSYAISWVRQAPGQGLEWMGGIIPIFGTANYAQKFQGRVTITADESTSTAYMELSSLRSEDTAVYYCARDLYGIDIYYALDYWGQGTLVTVSS
VL: B13 VL with N30S, N31S, D33Y, T51G, A92S, T93N, V95L
notes: Soluble Fab-His
- Fab Binding [2]: 1.7e+06 relative chemiluminescence units
- fold above background [3]: ≥ 6 fold

B16: Fab F90 (VH H83, VL L83) (Fab, V domains shown)
VH: QVQLVQSGAEVKKPGSSVKVSCKASGGTFSSYAISWVRQAPGQGLEWMGGIIPIFGTANYAQKFQGRVTITADESTSTAYMELSSLRSEDTAVYYCARGEANEVYPGLDYWGQGTLVTVSS
VL: B13 VL with N30S, N31K, D33A, T51N, A92S, T93N, T94K, V95D
notes: Soluble Fab-His
- Fab Binding [2]: 1.7e+06 relative chemiluminescence units
- fold above background [3]: ≥ 6 fold

B17: Fab F72 (VH H65, VL PH9L1) (Fab, V domains shown)
VH: B16 VH with E100D, E103S, V104I, G107L, L108F
VL: not shown
notes: Soluble Fab-His
- Fab Binding [2]: 1.6e+06 relative chemiluminescence units
- fold above background [3]: ≥ 6 fold

Further lines, results first:

- Kd [1]: 0.715 nM
- koff [1]: 0.000303 s⁻¹
- kon [1]: 212000 M⁻¹ s⁻¹
B1: mAb ATXB3 (antibody, V domains shown)
VH: EVQLVQSGAEVKKPGESLKISCKGSGYSFTSYWIGWVRQMPGKGLEWMGIIYPGDSDTRYSPSFQGQVTISADKSISTAYLQWSSLKASDTAMYYCARPYGTFDYWGQGTLVTVSS
VL: B2 VL with N50K, F92N, H93G, L96R
notes: Human IgG1/kappa from Fab F17

- IC50, inhibition of LPC hydrolysis by human ATX beta (1.5 nM), coupled choline oxidation (Amplex Red) assay [4]: 1 nM
- Kd [1]: 0.329 nM
- koff [1]: 0.000292 s⁻¹
- kon [1]: 444000 M⁻¹ s⁻¹
- IC50, inhibition of LPC hydrolysis by mouse ATX, coupled choline oxidation (Amplex Red) assay [5]: 0.3 nM
B5: mAb ATXB6 (antibody, V domains shown)
VH: B7 VH with N57T, T58A, H99D, Y100L, L101Y, P102I, D103Y, A104G, T105D
VL: B10 VL with S30G, S31G, Y32W, A50T, H91S, L92Y, S93T, I94Y
notes: Human IgG1/kappa from Fab F73

- IC50, inhibition of LPC hydrolysis by human ATX beta (1.5 nM), coupled choline oxidation (Amplex Red) assay [4]: 158 nM
- IC50, inhibition of LPC hydrolysis by mouse ATX, coupled choline oxidation (Amplex Red) assay [5]: 217 nM
B6: mAb ATXB7 (antibody, V domains shown)
VH: B16 VH with G99P, E100I, A101G, N102T, E103G, V104Y, P106G, G107F, L108F
VL: B10 VL with S30A, S31K, Y32W, A50F, H91S, L92Y, I94T, I96L

- Fab Binding [2]: 1.9e+06 relative chemiluminescence units
- fold above background [3]: ≥ 6 fold
B8: Fab F116 (VH H108, VL L100) (Fab, V domains shown)
VH: B16 VH with G99S, E100D, A101L, E103N, Y105S, P106T, G107V
VL: B10 VL with S30G, S31K, Y32V, A50G, H91P, L92I, I94T, I96L
notes: Soluble Fab-His

- Fab Binding [2]: 1.8e+06 relative chemiluminescence units
- fold above background [3]: ≥ 6 fold
B9: Fab F117 (VH H110, VL L103) (Fab, V domains shown)
VH: B16 VH with G99A, E100D, E103Q, V104L, Y105S, P106G, G107Y
VL: B10 VL with S30G, S31R, Y32S, H91P, L92F, S93D, I94Y, I96F
notes: Soluble Fab-His

- Fab Binding [2]: 1.8e+06 relative chemiluminescence units
- fold above background [3]: ≥ 6 fold
B11: Fab F128 (VH H127, VL L111) (Fab, V domains shown)
VH: B7 VH with T58A, H99G, Y100F, L101V, P102N, D103F, A104S, T105R
VL: B13 VL with N30S, N31S, D33Y, T51G, A92D, T93S, T94A, V95F, L97W
notes: Soluble Fab-His

- Fab Binding [2]: 2.2e+06 relative chemiluminescence units
- fold above background [3]: ≥ 6 fold
B12: Fab F130 (VH H129, VL L113) (Fab, V domains shown)
VH: B16 VH with G99D, E100H, A101G, N102Y, E103A, V104Y, P106S, G107A, L108F
VL: B13 VL with N30S, N31S, D33Y, T51G, A92S, T93S, T94R, V95D, L97W
notes: Soluble Fab-His

- Fab Binding [2]: 1.9e+06 relative chemiluminescence units
- fold above background [3]: ≥ 6 fold
B18: Fab F122 (VH H119, VL L108) (Fab, V domains shown)
VH: B14 VH with F100G, L101V, S102T, Q103T, F104Y, S105D, W106Y, L107F
VL: B13 VL with N30S, N31S, D33Y, T51G, A92S, T93S, T94R, V95Y, L97W
notes: Soluble Fab-His
